Source: article doi:10.1101/634816
Positions count from the first letter of the chain named. Like-named read-outs stand apart in the source and are kept apart here.

Columns and labels:
AtARF5-DBD [1] = target: T1, AtARF5-DBD (Arabidopsis thaliana, UniProt P93024 1-390); experiment: Ni-NTA pull-down with SYBR Gold fluorescence
T1 sequence: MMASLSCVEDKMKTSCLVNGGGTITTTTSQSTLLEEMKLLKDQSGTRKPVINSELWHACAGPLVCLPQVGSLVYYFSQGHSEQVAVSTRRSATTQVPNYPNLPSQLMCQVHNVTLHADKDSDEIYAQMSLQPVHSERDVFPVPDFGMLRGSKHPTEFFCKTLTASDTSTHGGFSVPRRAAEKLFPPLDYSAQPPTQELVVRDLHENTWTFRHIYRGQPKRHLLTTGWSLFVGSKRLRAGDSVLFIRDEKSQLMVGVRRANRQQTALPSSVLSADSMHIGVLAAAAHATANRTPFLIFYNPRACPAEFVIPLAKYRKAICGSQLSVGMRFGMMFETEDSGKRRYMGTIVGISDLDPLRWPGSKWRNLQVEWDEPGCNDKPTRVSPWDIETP

AtARF5-DBD [2] = target: T1, AtARF5-DBD; experiment: Ni-NTA pull-down with SYBR Gold fluorescence; remark: listed apart in the source

B1: ER7-GG (dsDNA)
DNA 1: CCGGTAGGTTGTCGGCCAAAGGCCGACAACCGGTAGG
DNA 2: CCTACCGGTTGTCGGCCTTTGGCCGACAACCTACCGG
B1: binds (AtARF5-DBD [1]).

B2: ER7 (dsDNA)
DNA 1: B1 DNA 1 with G14T, G15C, C23G, C24A
DNA 2: B1 DNA 2 with G14T, G15C, C23G, C24A
B2: binds (AtARF5-DBD [2]).
